Data from patent US20230340128A1 (Xencor, published 2023).
Changes are numbered by the printed parent chain.

Tests used:
human mesothelin (MSLN) [1] = biological target: T1, human mesothelin (MSLN) (human, UniProt Q13421 296-580, limits assumed); assay: BLI (Octet), multiple concentrations, bsAb in 1+1 Fab-scFv-Fc format
T1 construct: Antigen of the Octet KD values

[2] = biological target: MSLN on OVCAR8 cells (~90K MSLN antigens/cell) (UniProt Q13421 296-598); assay: binding to OVCAR8 cells, MFI APC against mAb concentration
human mesothelin (MSLN) [3] = biological target: T1, human mesothelin (MSLN); assay: BLI (Octet), multiple concentrations, bsAb in 1+1 Fab-scFv-Fc format; lower table, column 'human MSLN (M)'
human mesothelin (MSLN) [4] = biological target: T1, human mesothelin (MSLN); assay: KD quoted in the FIG. 25 legend; Octet (BLI) per FIGS. 20-21
human CD28 [5] = biological target: T2, human CD28 (human, UniProt P10747 19-152, limits assumed); assay: method not stated; Monovalent CD28 KD, table headed 1A7[CD28] H1_L1.71 (aka 180 nM)
T2 construct: also called Cluster of Differentiation 28; Tp44

human CD28 [6] = biological target: T2, human CD28; assay: label in the legend box: nominal affinity of the CD28 binding domain (paragraph 422 calls such label values KD); method not stated on the sheet
human mesothelin (MSLN) [7] = biological target: T1, human mesothelin (MSLN); assay: label in the legend box: nominal affinity of the MSLN binding domain (paragraph 422 calls such label values KD); method not stated on the sheet
[8] = biological target: T3, MSLN on OVCAR8 cells (~90K MSLN antigens/cell) (UniProt Q13421 296-598); assay: flow cytometry on OVCAR8 cells, 1 h at 4 C, anti-human-Fc A647 secondary
T3 construct: whole, on cells; Endogenous expression on a cancer cell line
Method: In this experiment, 50,000 OVCAR8 cells (˜90K MSLN antigens/cell) were seeded per well in a plate. Anti-human-Fc secondary (A647) was added for 30 min at 4° C., and binding was assessed via FACs. FIG. 39C depicts that the CD28×MSLN bsAbs in neither 1+1-Fab-scFv format nor the 2+1 mAb-scFv format antibodies show any significant off target binding. In this experiment, 50,000 SKOV3 cells (˜9K MSLN antigens/cell) were seeded per well in a plate. Anti-human-Fc secondary (A647) was added for 30 min at 4° C., and binding was assessed via FACs.
In order to assess the binding of MSLN×CD28 bsAbs in different formats, an experiment was conducted in which 50,000 OVCAR8 cells (˜90K MSLN antigens/cell) were seeded per well in a plate. Anti-human-Fc secondary (A647) was added for 30 min at 4° C., and binding was assessed via FACs.

human CD28 [9] = biological target: T2, human CD28; assay: label in the legend box: nominal affinity of the CD28 binding domain (paragraph 422 calls such label values KD); method not stated on the sheet; remark: listed apart in the source
human mesothelin (MSLN) [10] = biological target: T1, human mesothelin (MSLN); assay: label in the legend box: nominal affinity of the MSLN binding domain (paragraph 422 calls such label values KD); method not stated on the sheet; remark: listed apart in the source

B1: XENP32937 (bispecific antibody)
chain 1: QVQLVQSGAEVKKPGASVKVSCKASGYTFTSYWMHWVRQAPGQGLEWMGMIHPNSDNTIYYQKFQGRVTMTVDKSISTAYMELSRLRSDDTAVYYCAIIITPVVPKFDYWGQGTLVTVSSASTKGPSVFPLAPSSKSTSGGTAALGCLVKDYFPEPVTVSWNSGALTSGVHTFPAVLQSSGLYSLSSVVTVPSSSLGTQTYICNVNHKPSDTKVDKKVEPKSCDKTHTCPPCPAPPVAGPSVFLFPPKPKDTLMISRTPEVTCVVVDVKHEDPEVKFNWYVDGVEVHNAKTKPREEEYNSTYRVVSVLTVLHQDWLNGKEYKCKVSNKALPAPIEKTISKAKGQPREPQVYTLPPSREEMTKNQVSLTCDVSGFYPSDIAVEWESDGQPENNYKTTPPVLDSDGSFFLYSKLTVDKSRWEQGDVFSCSVMHEALHNHYTQKSLSLSPGK
chain 2: not shown
chain 3: DIVMTQSPDSLAVSLGERATINCKASHDVGTSVAWYQQKPGQSPKLLIYWASTRHTGVPDRFTGSGSGTDFTLTISSLQAEDVAVYFCQQYYSYPLTFGAGTKLEIKRTVAAPSVFIFPPSDEQLKSGTASVVCLLNNFYPREAKVQWKVDNALQSGNSQESVTEQDSKDSTYSLSSTLTLSKADYEKHKVYACEVTHQGLSSPVTKSFNRGEC
Kd (human mesothelin (MSLN) [1]): 10.2 nM | koff (human mesothelin (MSLN) [1]): 0.00822 s⁻¹ | kon (human mesothelin (MSLN) [1]): 803000 M⁻¹ s⁻¹

B2: XENP31697 (bispecific antibody)
chain 1: B1 chain 1 with Q62E
chain 2: not shown
chain 3: B1 chain 3 with Y92S
EC50 (read off the curve) [2]: ~0.07 µg/mL | Kd (human mesothelin (MSLN) [3]): 0.28 nM

B3: XENP31717 (bispecific antibody)
chain 1: B1 chain 1 with Q62E
chain 2: QVQLVQSGAEVKKPGASVKVSCKASGYTFTSYWMHWVRQAPGQGLEWMGMIHPNSDNTIYYEKFQGRVTMTVDKSISTAYMELSRLRSDDTAVYYCAIIITPVVPKFDYWGQGTLVTVSSASTKGPSVFPLAPSSKSTSGGTAALGCLVKDYFPEPVTVSWNSGALTSGVHTFPAVLQSSGLYSLSSVVTVPSSSLGTQTYICNVNHKPSNTKVDKKVEPKSCGGGGSGGGGSQAVVTQEPSLTVSPGGTVTLTCGSSTGAVTTSNYANWVQQKPGKSPRGLIGGTNKRAPGVPARFSGSLLGGKAALTISGAQPEDEADYYCALWYSNHWVFGGGTKLTVLGKPGSGKPGSGKPGSGKPGSEVQLVESGGGLVQPGGSLRLSCAASGFTFSTYAMNWVRQAPGKGLEWVGRIRSKANNYATYYADSVKGRFTISRDDSKNTLYLQMNSLRAEDTAVYYCVRHGNFGDSYVSWFAYWGQGTLVTVSSGGGGSGGGGSKTHTCPPCPAPPVAGPSVFLFPPKPKDTLMISRTPEVTCVVVDVKHEDPEVKFNWYVDGVEVHNAKTKPREEQYNSTYRVVSVLTVLHQDWLNGKEYKCKVSNKALPAPIEKTISKAKGQPREPQVYTLPPSREQMTKNQVKLTCLVKGFYPSDIAVEWESNGQPENNYKTTPPVLDSDGSFFLYSKLTVDKSRWQQGNVFSCSVMHEALHNHYTQKSLSLSPGK
chain 3: B1 chain 3 with Y92S
Kd (human mesothelin (MSLN) [4]): 0.28 nM | EC50 (read off the curve) [2]: ~0.04 µg/mL

B4: XENP44474 (bispecific antibody)
chain 1: QVQLVQSGAEVKKPGASVKVSCKASGYTFTSYWMHWVRQAPGQGLEWMGMIHPNSDNTIYYEKFQGRVTMTVDKSISTAYMELSRLRSDDTAVYYCAIIITPVVPKFDYWGQGTLVTVSSASTKGPSVFPLAPSSKSTSGGTAALGCLVKDYFPEPVTVSWNSGALTSGVHTFPAVLQSSGLYSLSSVVTVPSSSLGTQTYICNVNHKPSDTKVDKKVEPKSCGGGGSGGGGSQVQLVQSGAEVKKPGASVKVSCKASGYTFTSYWMHWVRQAPGQGLEWMGMIHPNSDNTIYYEKFQGRVTMTVDKSISTAYMELSRLRSDDTAVYYCAIIITPVVPKFDYWGQGTLVTVSSASTKGPSVFPLAPSSKSTSGGTAALGCLVKDYFPEPVTVSWNSGALTSGVHTFPAVLQSSGLYSLSSVVTVPSSSLGTQTYICNVNHKPSDTKVDKKVEPKSCDKTHTCPPCPAPPVAGPSVFLFPPKPKDTLMISRTPEVTCVVVDVKHEDPEVKFNWYVDGVEVHNAKTKPREEEYNSTYRVVSVLTVLHQDWLNGKEYKCKVSNKALPAPIEKTISKAKGQPREPQVYTLPPSREEMTKNQVSLTCDVSGFYPSDIAVEWESDGQPENNYKTTPPVLDSDGSFFLYSKLTVDKSRWEQGDVFSCSVLHEALHSHYTQKSLSLSPGK
chain 2: not shown
chain 3: B1 chain 3 with Y92S
notes: also called 2+1 Fab2-Fc x scFv-Fc MSLN x CD28 bsAb
Kd (human CD28 [5]): 4900 nM

B5: XENP44468 (bispecific antibody)
chain 1: B1 chain 1 with Q62E, M430L, N436S
chain 2: not shown
chain 3: B1 chain 3 with Y92S
notes: also called 2+1 Fab2-scFv-Fc MSLN x CD28 bsAb
Kd (human CD28 [5]): 1200 nM

B6: XENP39534 (bispecific antibody)
heavy 1: B1 chain 1 with Q62E, M430L, N436S
heavy 2: not shown
light 1: B1 chain 3 with Y92S
light 2: B1 chain 3 with Y92S
notes: also called H1_L1.71
Kd (human CD28 [5]): 460 nM

B7: XENP39534 (bispecific antibody)
heavy 1: B1 chain 1 with Q62E, M430L, N436S
heavy 2: not shown
light 1: B1 chain 3 with Y92S
light 2: B1 chain 3 with Y92S
notes: also called XENP39534 MSLN (0.3 nM) x CD28 (180 nM) 2+1 mAb-scFv
Kd (human CD28 [6]): 180 nM | Kd (human mesothelin (MSLN) [7]): 0.3 nM

B8: XENP39570 (bispecific antibody)
heavy: B1 chain 1 with M50W, Q62E, M430L, N436S
scFv-Fc: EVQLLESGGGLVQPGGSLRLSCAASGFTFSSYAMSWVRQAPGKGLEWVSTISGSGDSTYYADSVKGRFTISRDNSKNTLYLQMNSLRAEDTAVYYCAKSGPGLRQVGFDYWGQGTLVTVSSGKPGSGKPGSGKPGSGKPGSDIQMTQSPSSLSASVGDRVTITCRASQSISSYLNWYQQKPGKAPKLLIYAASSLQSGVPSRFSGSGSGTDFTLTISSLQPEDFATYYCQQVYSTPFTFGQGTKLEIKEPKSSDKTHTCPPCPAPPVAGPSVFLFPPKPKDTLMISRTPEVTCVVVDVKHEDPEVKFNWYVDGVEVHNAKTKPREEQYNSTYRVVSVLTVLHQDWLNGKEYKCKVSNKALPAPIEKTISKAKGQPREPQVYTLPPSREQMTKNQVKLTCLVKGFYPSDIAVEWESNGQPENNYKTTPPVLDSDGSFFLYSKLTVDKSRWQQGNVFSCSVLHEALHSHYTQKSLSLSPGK
light: B1 chain 3 with T31Q, Y92S
notes: also called XENP39570 MSLN (90 nM) x CD28 (180 nM) 1+1 Fab-scFv-Fc
Kd (human CD28 [6]): 180 nM | Kd (human mesothelin (MSLN) [7]): 90 nM

B9: XENP44469 (bispecific antibody)
heavy 1: B1 chain 1 with Q62E, M430L, N436S
heavy 2: not shown
light 1: B1 chain 3 with Y92S
light 2: B1 chain 3 with Y92S
notes: also called XENP44469 MSLN (0.3 nM) x CD28 (180 nM) 2+1 Fab2-scFv-Fc
EC50 (read off the curve) [8]: ~0.004 µg/mL | Kd (human CD28 [9]): 180 nM | Kd (human mesothelin (MSLN) [10]): 0.3 nM

B10: XENP44475 (bispecific antibody)
heavy: B4 chain 1
scFv-Fc: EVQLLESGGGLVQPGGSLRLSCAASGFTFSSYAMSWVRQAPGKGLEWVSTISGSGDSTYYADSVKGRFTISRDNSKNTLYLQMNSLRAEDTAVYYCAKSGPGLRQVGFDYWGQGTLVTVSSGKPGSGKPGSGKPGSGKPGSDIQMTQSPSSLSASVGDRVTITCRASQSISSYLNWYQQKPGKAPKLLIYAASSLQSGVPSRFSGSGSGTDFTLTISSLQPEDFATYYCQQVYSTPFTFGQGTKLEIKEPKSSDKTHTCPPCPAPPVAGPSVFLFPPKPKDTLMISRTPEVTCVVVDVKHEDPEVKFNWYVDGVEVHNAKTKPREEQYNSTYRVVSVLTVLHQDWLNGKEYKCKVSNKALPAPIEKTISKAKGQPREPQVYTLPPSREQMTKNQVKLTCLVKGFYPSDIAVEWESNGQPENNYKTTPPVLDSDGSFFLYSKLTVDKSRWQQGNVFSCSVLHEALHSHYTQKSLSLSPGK
light 1: B1 chain 3 with Y92S
light 2: B1 chain 3 with Y92S
notes: also called XENP44475 MSLN (0.3 nM) x CD28 (180 nM) 2+1 Fab2-Fc x scFv-Fc
EC50 (read off the curve) [8]: ~0.005 µg/mL | Kd (human CD28 [9]): 180 nM | Kd (human mesothelin (MSLN) [10]): 0.3 nM
